# Source: the NTF2 design screens of Basanta et al. (2020)
# Assay: protease stability score; higher = more stable; yeast display proteolysis, trypsin and chymotrypsin;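 note: relative to predicted unfolded state with 0 unfolded-like and 1 meaning tenfold more protease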
row,Sequence,protease stability score
1,SEEDEEFRHVVERWVRAVTTGNEDELESLLDPNVRLDVGDKRTHGREKWTELFRHLRTQVHHIEITEKHTVGDKVHYRGTLDMTFYVDGVDVRSETETTLVMVKYNGRWQYTHVIIH,1.15
2,DDEEHSAENFARHFMENLRTGDEDRLHELADPNMQIILHFDGQHEVRHGWESYEYLVRLFGVKHIHINHFEIFYVNGRVHLRIEGHIHQGDKYREVYIHIDINKVNGRWHVESVELRIH,0.93
3,DEDEHDVRELIELVLQVERTGNWKIFERLADPNVRLNIDGQEFHGREEALKLREDLLHHWGVDNIEVTLEDVTFQGDKVNSHFTSQFNGREFELIVIIMKIDGKWFLHQIQVHER,1.19
4,DEENKVLEHMIRLIHHDRSTGDEKVLLKLFDPHARFIYHYGDKEIHLHGRKEITDLLVKLHRHIRVDRLHIDHWEFHGDKMHIDHTTRMNVNGREMETRIDLIITIIDGVIHSIEIRQR,1.19
5,DEEDNMMREIWKQLVDNQRTGDEDRLQDLIDPHVRIIINIDGRELRSHGRHELVRWLREMGVDYLDIKSYRLQGDKIETDGTLSIGDKTKEVEVRYNIIDGRTKEVEFHLR,0.167
6,NEDEEAHHKLIKEYSRLVDTGDWRSLRRYLDPDYRLRVDGVDIVGRDELHRILEQMLDRVDHLHLNIERHRIQGDFLISDVKHHYEFNGKHVERKVIIYIWKFDGRWIMRYTEVL,1.02
7,SEEEHLMRELLEVFLRNMLTGDWDKTAKLADPDTRFRAHVGDFKVERHGMEQFIKWLKDEREQWRIRRIHIDRIELVDGVIRVEGTIDVEYDGVREVERSELILVIIDGRIHEVEVHIR,1.44
8,DDRERESEEALRLFIETLETGDEHWLKRLMDPNARLHQGEKTIHGMDIFSTWVVEARLKHYHLERVHIQGDKMDVESHVDGHVNGQRLKVQLIFHSLKIDGRWLVKHIIVH,1.4
9,DEDERLMQKAMEELWDIWHTGDEDRYNELADPHDRFEVGDKEIHGREETSHFLTEFRKRVKGIRILTDRFDHRRIGDKVVLRLETRIEIDGVRIKTRLIFIIRKFNGKWHIHSIIVIIE,0.673
10,SEHEEESHIAFEIYQKWVQTGDWEQLDHNFDPDTRVEINGVEHVGMEHFHELEKRLHEHLGISKINSHVKHFEIFDGRLELFTIMEFNGRRIRTHHIAHKVNGRWRIKSIRFE,1.43
11,DEDTRIMEELLELTMEHVKTGDESSFRKLADPNVRMEYNGVEIHGREEASELFLEEMERIKNLTLRIKRLHIQGDKVIIYEEYEYGEKSWTVTYEAYKINGRWLMESIRFG,1.13
12,DEDRERSKKEFDTLVKSELTGDEDSYRRMADPDTRLVVGDKEYHGRSAMRYFLRQVDHMEHVIIRRVEYQGDYAHFDITVHGDINGRRDTVHFHLVMYKIDGRWVVHELIIK,1.32
13,DEDHRDAQRLVEHWINVFETGDEEQIEKLLDPNARVIVDGRHVHGRSSVLKFIVDLVREMRVELRLKDLSVVDGRVHVKMEMRIEINGRREETEVDINAEKVDGVWRFKEMFVI,2.47
14,DESTKNAQEVIKMIKEIVETGDWRRHHQLVDPNARLHVHINGKDEESHGREEFTRVLMELWKEFGAKHVRFEDFELQGEKIHFHVKINVDGKDVKLLIVALKINGRWLMESVYVEFH,1.19
15,SEEHRKVEEFARHWLHNFQTGDFRRFYELVDPNVRLRQGDWEFHGREIVAEWLFVHLEHARIDDYKVNHVENYNGRSIIDSEIHGEINGRRDITRVEIILIIINGRVHYVEIRIR,2.31
16,SEEHEEVHKVIEMLVRHARTGDEDYLRNQFDPNARVRFNGKDRHGRESLDEMLKQFDVIKEVRIKRIDVQGEKIHADIEIRGRYNGQEINTESHIVFKKINGQWIIEEVEFK,1.6
17,SHHEEHLHEMLRLILEAWETGDEDFLEELADPRVQLIVNGKDIHGRHVFRTMLRTHIEQMRIKRVTPRRVRNYDGRVESDIEVDGIIDGQRRKYRTTWVVEIIDGRVESLSLHFI,0.723
18,DELEEEVMEFIRVFIHLLNTGDEDHLHELIDPNVRVEDENEEKHGRDTVEHMQRFFKNLRVTDLKVETFEVQGEFVHVHVDIEERVGDKHFHYKVLYIILKVDGRWLMHQVRFH,2.12
19,DEEEKIVEDAIRVWRRVLMTGDEEASRDLMDPNYKLVVGDKEYHGREEIVTYFKILVEHIRIDDFDVRHIRVQGDKIDINSEINGTIDGRHKRLEVTIHAHKFDGRWHLTEIIIH,0.811
20,SEEDKIVHEMMERLLKNWQTGNWEEIEKLFDPNAKLLVDGVELHGREEMSRHWEEKLNQIDHLRIRIRDYRYFDGRLRVEGEEIHYVNGKDITREVEIRLQVINGVVESIEFHRR,1.42
21,SEREDITHEFIQKTIKAIHTGDFILLLRLLDPDMQFDIGDKEFIGRERLREFMEEWRVRVKHYEIEHVRLQGDKLETHTHEHREIWIGDKVVHERFDRKIEITKVDGQWAIKRVEII,0.284
22,NEEEQEILEDVEEHIRAEYTGDEEVLDNLADPNTRIHYGEKELHGREEWLQLVHDEHNRFKGMKIEVIIRHIDIYDGRVRSEGELHIHVGDKEYHVDVQMILTKVNGRWLLTRIHFH,0.093
23,DHIEEELIRWLELLRNALETGDEELVVKLVDPRYRLIIGDKHHHGMEEWSKILKEESERVKNARIELHLRHLRLFNGQADMEVENVVRYNGVTIIIDVRIHLLKVNGRWKEREVREG,1.33
24,DEEEQEFREFMKHVLEMIRTGDEDQWRKLMDPDARLIVDGKDIHGREEVVRLWSEITRHARFRDRKIHSMEIQGDKVRVDGRVLGEFNGVDRQTESHIIFHKINGRWKIHQEFIV,0.882
25,SEREKIAELAYRLLKRSSDTGDPHLMQWLMDPNTRIEQGEFEHHGRDAISFWIKRFDHNRHIDVKRIEVQGNKVIMEFDVELDVNGVEIHTELVLISLKVNGQWRMESIKIE,0.575
